Assay results reported in publication doi:10.1101/2024.07.30.605912 (bioRxiv, 2024).

Biological target: the molecule itself
Assay: cryo-EM structure

B1: Salmonella typhimurium ArnC (undecaprenyl-phosphate 4-deoxy-4-formamido-L-arabinose transferase) (enzyme)
chain: MFDAAPIKKVSVVIPVYNEQESLPELIRRTTTACESLGKAWEILLIDDGSSDSSAELMVKASQEADSHIISILLNRNYGQHAAIMAGFSHVSGDLIITLDADLQNPPEEIPRLVAKADEGFDVVGTVRQNRQDSLFRKSASKIINLLIQRTTGKAMGDYGCMLRAYRRPIIDTMLRCHERSTFIPILANIFARRATEIPVHHAEREFGDSKYSFMRLINLMYDLVTCLTTTPLRLLSLLGSVIAIGGFSLSVLLIVLRLALGPQWAAEGVFMLFAVLFTFIGAQFIGMGLLGEYIGRIYNDVRARPRYFVQQVIYPESTPFTEESHQ
stoichiometry N: 4
